Assay results from patent US20230212549A1, “COMPOUNDS COMPRISING A […] LIGAND AND USE THEREOF” (priority 2021, published 2023).
Bridge positions count the residues as written; N and C are the ends.

Experiments:
Experiment in all cases: cell-based or functional assay
A20, P21580 = target: T1, A20, P21580
T1 chain: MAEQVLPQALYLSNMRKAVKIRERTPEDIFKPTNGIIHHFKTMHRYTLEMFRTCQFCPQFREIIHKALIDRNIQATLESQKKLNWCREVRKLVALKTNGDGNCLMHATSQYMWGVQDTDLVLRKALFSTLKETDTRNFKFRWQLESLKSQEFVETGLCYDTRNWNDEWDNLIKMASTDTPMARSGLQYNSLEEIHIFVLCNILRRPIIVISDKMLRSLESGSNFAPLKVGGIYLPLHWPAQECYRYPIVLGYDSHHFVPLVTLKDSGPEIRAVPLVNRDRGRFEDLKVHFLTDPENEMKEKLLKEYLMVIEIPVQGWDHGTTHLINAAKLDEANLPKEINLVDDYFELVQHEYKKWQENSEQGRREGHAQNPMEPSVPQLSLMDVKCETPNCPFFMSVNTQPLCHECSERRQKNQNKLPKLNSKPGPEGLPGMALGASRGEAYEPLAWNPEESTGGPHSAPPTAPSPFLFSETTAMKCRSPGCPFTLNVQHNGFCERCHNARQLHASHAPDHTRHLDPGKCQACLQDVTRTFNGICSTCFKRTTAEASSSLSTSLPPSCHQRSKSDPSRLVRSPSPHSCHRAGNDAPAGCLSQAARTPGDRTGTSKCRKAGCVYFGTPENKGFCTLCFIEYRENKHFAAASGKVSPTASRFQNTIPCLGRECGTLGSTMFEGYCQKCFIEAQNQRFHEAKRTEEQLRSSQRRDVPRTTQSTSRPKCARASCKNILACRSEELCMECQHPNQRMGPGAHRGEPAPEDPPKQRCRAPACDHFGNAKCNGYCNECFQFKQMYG

[1] = target: Activated Protein C, P04070
Caspase-6, P55212 = target: T2, Caspase-6, P55212
T2 chain: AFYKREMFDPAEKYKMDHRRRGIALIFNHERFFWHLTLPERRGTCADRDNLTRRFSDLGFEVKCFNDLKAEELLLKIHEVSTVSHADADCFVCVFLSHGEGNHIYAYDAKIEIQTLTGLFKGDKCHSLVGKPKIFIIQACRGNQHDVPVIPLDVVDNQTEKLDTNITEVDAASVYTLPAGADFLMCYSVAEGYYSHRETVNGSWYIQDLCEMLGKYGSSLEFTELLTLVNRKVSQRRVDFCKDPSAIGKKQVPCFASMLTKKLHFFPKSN

Caspase-8, Q14790 = target: T3, Caspase-8, Q14790
T3 chain: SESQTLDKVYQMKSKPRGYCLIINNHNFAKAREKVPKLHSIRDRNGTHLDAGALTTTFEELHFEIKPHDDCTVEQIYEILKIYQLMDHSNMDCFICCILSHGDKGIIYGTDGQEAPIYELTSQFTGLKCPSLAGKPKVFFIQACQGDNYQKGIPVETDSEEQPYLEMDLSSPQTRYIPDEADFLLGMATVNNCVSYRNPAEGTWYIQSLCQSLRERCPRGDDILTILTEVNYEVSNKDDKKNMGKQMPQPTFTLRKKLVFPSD

DPP9, Q86TI2 = target: DPP9, Q86TI2
Sequence of DPP9, Q86TI2 (Q86TI2 whole entry): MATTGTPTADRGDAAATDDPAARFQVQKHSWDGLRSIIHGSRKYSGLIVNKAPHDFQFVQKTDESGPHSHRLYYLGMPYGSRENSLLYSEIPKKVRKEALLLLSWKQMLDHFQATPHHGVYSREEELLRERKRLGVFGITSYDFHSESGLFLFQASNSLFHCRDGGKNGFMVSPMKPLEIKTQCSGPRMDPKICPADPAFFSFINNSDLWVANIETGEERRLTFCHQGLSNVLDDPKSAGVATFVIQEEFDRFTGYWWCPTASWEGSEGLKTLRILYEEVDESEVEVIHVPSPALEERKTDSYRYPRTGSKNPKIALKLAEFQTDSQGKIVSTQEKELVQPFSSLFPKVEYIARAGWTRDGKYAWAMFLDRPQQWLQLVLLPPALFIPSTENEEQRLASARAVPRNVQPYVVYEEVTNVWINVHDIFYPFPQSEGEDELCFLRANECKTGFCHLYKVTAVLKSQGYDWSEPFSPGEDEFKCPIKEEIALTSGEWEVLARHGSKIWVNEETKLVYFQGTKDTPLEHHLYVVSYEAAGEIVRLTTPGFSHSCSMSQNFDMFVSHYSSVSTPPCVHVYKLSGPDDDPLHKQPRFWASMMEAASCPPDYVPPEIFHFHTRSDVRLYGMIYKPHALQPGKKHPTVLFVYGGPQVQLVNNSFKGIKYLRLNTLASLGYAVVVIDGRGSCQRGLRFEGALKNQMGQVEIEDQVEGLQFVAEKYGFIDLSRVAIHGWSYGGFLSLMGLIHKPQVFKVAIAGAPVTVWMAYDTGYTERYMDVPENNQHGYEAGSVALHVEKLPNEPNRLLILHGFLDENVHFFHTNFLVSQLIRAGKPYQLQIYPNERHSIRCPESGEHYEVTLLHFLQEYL

[2] = target: T4, Matrix metalloprotease 2, P08253
T4 chain: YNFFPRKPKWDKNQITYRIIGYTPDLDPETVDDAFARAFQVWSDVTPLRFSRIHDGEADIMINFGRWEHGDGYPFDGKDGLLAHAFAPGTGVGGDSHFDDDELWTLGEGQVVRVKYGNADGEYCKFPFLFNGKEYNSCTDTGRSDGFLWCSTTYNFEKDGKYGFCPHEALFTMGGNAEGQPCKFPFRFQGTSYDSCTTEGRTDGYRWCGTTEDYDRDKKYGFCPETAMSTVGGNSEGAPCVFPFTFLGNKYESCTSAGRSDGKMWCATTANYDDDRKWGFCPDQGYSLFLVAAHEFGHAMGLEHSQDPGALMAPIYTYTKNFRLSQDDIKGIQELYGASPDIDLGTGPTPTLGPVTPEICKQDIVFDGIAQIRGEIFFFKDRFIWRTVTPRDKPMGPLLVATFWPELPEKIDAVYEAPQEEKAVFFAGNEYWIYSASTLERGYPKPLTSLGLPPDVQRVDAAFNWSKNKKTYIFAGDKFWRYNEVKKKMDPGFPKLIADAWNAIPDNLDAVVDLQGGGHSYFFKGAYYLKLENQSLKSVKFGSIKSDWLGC

[3] = target: Ubiquitin carboxyl-terminal hydrolase 10, Q14694
Sequence of Ubiquitin carboxyl-terminal hydrolase 10, Q14694 (Q14694 whole entry): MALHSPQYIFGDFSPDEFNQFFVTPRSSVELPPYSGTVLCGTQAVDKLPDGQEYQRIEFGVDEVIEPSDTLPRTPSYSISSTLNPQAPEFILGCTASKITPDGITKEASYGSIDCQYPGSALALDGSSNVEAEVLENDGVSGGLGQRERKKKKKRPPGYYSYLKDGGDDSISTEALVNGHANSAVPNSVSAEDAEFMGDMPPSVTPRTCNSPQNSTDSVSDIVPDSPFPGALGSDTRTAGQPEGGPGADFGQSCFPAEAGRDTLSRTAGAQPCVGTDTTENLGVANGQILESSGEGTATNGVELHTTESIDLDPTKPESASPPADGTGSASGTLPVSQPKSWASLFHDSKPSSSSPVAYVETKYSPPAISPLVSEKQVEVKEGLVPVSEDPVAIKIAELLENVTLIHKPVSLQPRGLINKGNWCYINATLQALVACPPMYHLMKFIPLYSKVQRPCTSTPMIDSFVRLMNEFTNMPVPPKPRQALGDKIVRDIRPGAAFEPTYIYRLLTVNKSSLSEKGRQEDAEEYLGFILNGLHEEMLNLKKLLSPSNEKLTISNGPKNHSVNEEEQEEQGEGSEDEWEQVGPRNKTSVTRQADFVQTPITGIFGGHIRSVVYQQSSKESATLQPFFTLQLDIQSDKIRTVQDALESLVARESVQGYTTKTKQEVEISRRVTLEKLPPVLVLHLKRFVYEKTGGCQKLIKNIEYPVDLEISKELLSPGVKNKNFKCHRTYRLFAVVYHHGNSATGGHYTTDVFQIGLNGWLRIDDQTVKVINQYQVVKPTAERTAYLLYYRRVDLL

[4] = target: T5, Ubiquitin carboxyl-terminal hydrolase 2, O75604
T5 chain: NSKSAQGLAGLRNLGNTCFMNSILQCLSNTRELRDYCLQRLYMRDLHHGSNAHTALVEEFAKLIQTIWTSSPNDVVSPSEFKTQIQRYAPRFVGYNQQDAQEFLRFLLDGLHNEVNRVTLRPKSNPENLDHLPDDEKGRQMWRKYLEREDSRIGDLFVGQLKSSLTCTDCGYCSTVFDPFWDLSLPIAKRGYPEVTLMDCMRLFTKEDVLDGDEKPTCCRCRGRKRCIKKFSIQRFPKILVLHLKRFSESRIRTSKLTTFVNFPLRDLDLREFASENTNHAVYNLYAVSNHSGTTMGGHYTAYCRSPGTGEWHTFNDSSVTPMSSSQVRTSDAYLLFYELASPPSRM

[5] = target: Ubiquitin carboxyl-terminal hydrolase 7, Q93009
Sequence of Ubiquitin carboxyl-terminal hydrolase 7, Q93009 (Q93009 whole entry): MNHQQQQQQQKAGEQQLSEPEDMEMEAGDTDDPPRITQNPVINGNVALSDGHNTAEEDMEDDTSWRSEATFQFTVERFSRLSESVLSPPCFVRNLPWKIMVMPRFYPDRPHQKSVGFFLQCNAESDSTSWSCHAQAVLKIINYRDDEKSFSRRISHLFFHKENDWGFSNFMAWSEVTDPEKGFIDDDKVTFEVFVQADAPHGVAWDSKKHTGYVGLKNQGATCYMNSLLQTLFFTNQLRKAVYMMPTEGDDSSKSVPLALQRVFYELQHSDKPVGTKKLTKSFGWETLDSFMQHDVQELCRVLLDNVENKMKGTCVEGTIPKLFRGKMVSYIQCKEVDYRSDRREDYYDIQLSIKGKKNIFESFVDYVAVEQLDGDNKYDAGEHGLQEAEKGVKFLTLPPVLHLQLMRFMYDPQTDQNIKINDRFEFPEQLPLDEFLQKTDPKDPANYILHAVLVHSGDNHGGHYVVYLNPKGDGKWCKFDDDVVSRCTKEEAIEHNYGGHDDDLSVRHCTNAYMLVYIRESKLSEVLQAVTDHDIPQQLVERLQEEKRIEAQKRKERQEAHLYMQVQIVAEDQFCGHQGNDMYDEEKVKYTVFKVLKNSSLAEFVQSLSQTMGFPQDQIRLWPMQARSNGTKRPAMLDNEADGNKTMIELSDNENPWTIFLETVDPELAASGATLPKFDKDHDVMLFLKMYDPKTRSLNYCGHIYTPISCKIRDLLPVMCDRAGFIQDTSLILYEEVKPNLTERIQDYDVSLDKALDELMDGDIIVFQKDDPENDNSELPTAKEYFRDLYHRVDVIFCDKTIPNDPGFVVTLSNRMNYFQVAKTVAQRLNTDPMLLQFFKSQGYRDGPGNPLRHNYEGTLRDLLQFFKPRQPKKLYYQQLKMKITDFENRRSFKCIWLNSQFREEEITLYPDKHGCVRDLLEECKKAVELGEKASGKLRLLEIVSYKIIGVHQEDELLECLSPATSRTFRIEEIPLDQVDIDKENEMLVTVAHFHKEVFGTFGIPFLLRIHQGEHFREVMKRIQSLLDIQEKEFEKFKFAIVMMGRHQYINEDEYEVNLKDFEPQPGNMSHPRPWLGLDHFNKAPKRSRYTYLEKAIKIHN

B1: Hex-[Cys(tMeBn(DOTA-AET))-Pro-Pro-Thr-Gln-Phe-Cys]-OH (peptide)
peptide: Hex-CPPTQFC-OH
modifications: bridge 1-7; not fully specified (bridges); printed as Hex-[Cys(tMeBn(DOTA-AET))-Pro-Pro-Thr-Gln-Phe-Cys]-OH
Percentage inhibition (%) at 1 µM (A20, P21580): 1% | Percentage inhibition (%) at 10 µM (A20, P21580): 0% | Percentage inhibition (%) at 1 µM [1]: -11% | Percentage inhibition (%) at 10 µM [1]: 1% | Percentage inhibition (%) at 1 µM (Caspase-6, P55212): 6% | Percentage inhibition (%) at 10 µM (Caspase-6, P55212): -3% | Percentage inhibition (%) at 1 µM (Caspase-8, Q14790): 0% | Percentage inhibition (%) at 10 µM (Caspase-8, Q14790): -3% | Percentage inhibition (%) at 1 µM (DPP9, Q86TI2): -1% | Percentage inhibition (%) at 10 µM (DPP9, Q86TI2): -5% | Percentage inhibition (%) at 1 µM [2]: -1% | Percentage inhibition (%) at 10 µM [2]: -2% | Percentage inhibition (%) at 1 µM [3]: 1% | Percentage inhibition (%) at 10 µM [3]: -1% | Percentage inhibition (%) at 1 µM [4]: 0% | Percentage inhibition (%) at 10 µM [4]: -1% | Percentage inhibition (%) at 1 µM [5]: 1% | Percentage inhibition (%) at 10 µM [5]: 1%

B2: Hex-[Cys(tMeBn(DOTA-PP))-Pro-Pro-Thr-Gln-Phe-Cys]-Asp-NH2 (peptide)
peptide: Hex-CPPTQFCD-NH2
modifications: bridge 1-7; not fully specified (bridges); printed as Hex-[Cys(tMeBn(DOTA-PP))-Pro-Pro-Thr-Gln-Phe-Cys]-Asp-NH2
Percentage inhibition (%) at 1 µM (A20, P21580): 2% | Percentage inhibition (%) at 10 µM (A20, P21580): -4% | Percentage inhibition (%) at 1 µM [1]: 5% | Percentage inhibition (%) at 10 µM [1]: 8% | Percentage inhibition (%) at 1 µM (Caspase-6, P55212): 1% | Percentage inhibition (%) at 10 µM (Caspase-6, P55212): -1% | Percentage inhibition (%) at 1 µM (Caspase-8, Q14790): 0% | Percentage inhibition (%) at 10 µM (Caspase-8, Q14790): 0% | Percentage inhibition (%) at 1 µM (DPP9, Q86TI2): -1% | Percentage inhibition (%) at 10 µM (DPP9, Q86TI2): 0% | Percentage inhibition (%) at 1 µM [2]: 3% | Percentage inhibition (%) at 10 µM [2]: 3% | Percentage inhibition (%) at 1 µM [3]: -2% | Percentage inhibition (%) at 10 µM [3]: 5% | Percentage inhibition (%) at 1 µM [4]: 3% | Percentage inhibition (%) at 10 µM [4]: 7% | Percentage inhibition (%) at 1 µM [5]: 5% | Percentage inhibition (%) at 10 µM [5]: 5%
